Measurements as given in US20260049138A1 (Chugai, published 2026).
Numbering of substitutions follows the chain as printed. Names may count otherwise. Each block holds one binder with its values, some of them ahead of it.

Target: T1, CD3ε homodimer protein (human, UniProt P07766 23-126, limits assumed, sulfo-tag or biotin label in the ECL assays; amine-coupled to the chip in SPR)
T1 construct: also called human CD3ε homodimer protein; CD3 (CD3ε)
Test: SPR Biacore T200; CD3ε homodimer on CM4 chip;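 note: Single-residue variant antibodies injected as analyte over CD3ε homodimer immobilized by amine coupling, run at 25 °C in HBS-EP+ buffer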
Protocol: An appropriate amount of CD3ε homodimer protein was immobilized onto Sensor chip CM4 (GE Healthcare Japan Corp.) by the amine coupling method. Then, the antibody having an appropriate concentration was injected thereto as an analyte and allowed to interact with the CD3ε homodimer protein on the sensor chip. Then, the sensor chip was regenerated by the injection of 10 mmol/L glycine-HCl (pH 1.5). The assay was conducted at 25° C., and HBS-EP+ (GE Healthcare Japan Corp.) was used as a running buffer. […] Each parameter was calculated using Biacore T200 Evaluation Software (GE Healthcare Japan Corp.).

T1 sequence (P07766 23-126 limits assumed): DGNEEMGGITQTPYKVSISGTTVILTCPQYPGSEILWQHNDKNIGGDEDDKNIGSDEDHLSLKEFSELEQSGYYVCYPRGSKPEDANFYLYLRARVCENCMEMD

B1: CE115HA000 Q50Y one-arm antibody (antibody, human IgG1, kappa, L234A L235A, N297A, name in Kabat numbering)
heavy: QVQLVESGGGVVQPGRSLRLSCAASGFTFSNAWMHWVRQAPGKGLEWVAYIKAKSNNYATYYAESVKGRFTISRDDSKNSLYLQMNSLKTEDTAVYYCRYVHYGAYYGVDAWGQGTTVTVSSASTKGPSVFPLAPSSKSTSGGTAALGCLVKDYFPEPVTVSWNSGALTSGVHTFPAVLQSSGLYSLSSVVTVPSSSLGTQTYICNVNHKPSNTKVDKKVEPKSCDKTHTCPPCPAPEAAGGPSVFLFPPKPKDTLMISRTPEVTCVVVDVSHEDPEVKFNWYVDGVEVHNAKTKPREEQYASTYRVVSVLTVLHQDWLNGKEYKCKVSNKALPAPIEKTISKAKGQPREPQVYTLPPSRCELTKNQVSLSCAVKGFYPSDIAVEWESNGQPENNYKTTPPVLDSDGSFFLVSKLTVDKSRWQQGNVFSCSVMHEALHNHYTQKSLSLSPDYKDDDDK
chain: EPKSSDKTHTCPPCPAPELLGGPSVFLFPPKPKDTLMISRTPEVTCVVVDVSHEDPEVKFNWYVDGVEVHNAKTKPREEQYNSTYRVVSVLTVLHQDWLNGKEYKCKVSNKALPAPIEKTISKAKGQPREPQVCTLPPSRDELTKNQVSLWCLVKGFYPSDIAVEWESNGQPENNYKTTPPVLDSDGSFFLYSKLTVDKSRWQQGNVFSCSVMHEALHNRYTQKSLSLSP
light: DIVMTQSPLSLPVTPGEPASISCRSSQSLVHSNRNTYLHWYQQKPGQAPRLLIYKVSNRFSGVPDRFSGSGSGTDFTLKISRVEAEDVGVYYCGQGTQVPYTFGQGTKLEIKRTVAAPSVFIFPPSDEQLKSGTASVVCLLNNFYPREAKVQWKVDNALQSGNSQESVTEQDSKDSTYSLSSTLTLSKADYEKHKVYACEVTHQGLSSPVTKSFNRGEC
ratio of amounts bound Z=Y/X (altered form / CE115HA000): 0.25

B3: CE115HA000 S52cD one-arm antibody (antibody, human IgG1, kappa, L234A L235A, N297A, name in Kabat numbering)
heavy: B1 heavy with Y50Q, S55D
chain: B1 chain
light: B1 light
ratio of amounts bound Z=Y/X (altered form / CE115HA000): 0.6

B6: CE115HA000 S52cK one-arm antibody (antibody, human IgG1, kappa, L234A L235A, N297A, name in Kabat numbering)
heavy: B1 heavy with Y50Q, S55K
chain: B1 chain
light: B1 light
ratio of amounts bound Z=Y/X (altered form / CE115HA000): 1.19

B8: CE115HA000 S62K one-arm antibody (antibody, human IgG1, kappa, L234A L235A, N297A, name in Kabat numbering)
heavy: B1 heavy with Y50Q, S65K
chain: B1 chain
light: B1 light
ratio of amounts bound Z=Y/X (altered form / CE115HA000): 1.19

B9: CE115HA000 S30D one-arm antibody (antibody, human IgG1, kappa, L234A L235A, N297A, name in Kabat numbering)
heavy: B1 heavy with S30D, Y50Q
chain: B1 chain
light: B1 light
ratio of amounts bound Z=Y/X (altered form / CE115HA000): 0.86

B10: CE115HA000 S62D one-arm antibody (antibody, human IgG1, kappa, L234A L235A, N297A, name in Kabat numbering)
heavy: B1 heavy with Y50Q, S65D
chain: B1 chain
light: B1 light
ratio of amounts bound Z=Y/X (altered form / CE115HA000): 0.92

B11: CE115HA000 S52cA one-arm antibody (antibody, human IgG1, kappa, L234A L235A, N297A, name in Kabat numbering)
heavy: B1 heavy with Y50Q, S55A
chain: B1 chain
light: B1 light
ratio of amounts bound Z=Y/X (altered form / CE115HA000): 0.96

B14: CE115HA000 R16E one-arm antibody (antibody, human IgG1, kappa, L234A L235A, N297A, name in Kabat numbering)
heavy: B1 heavy with R16E, Y50Q
chain: B1 chain
light: B1 light
ratio of amounts bound Z=Y/X (altered form / CE115HA000): 0.88

B15: CE115HA000 S52cV one-arm antibody (antibody, human IgG1, kappa, L234A L235A, N297A, name in Kabat numbering)
heavy: B1 heavy with Y50Q, S55V
chain: B1 chain
light: B1 light
ratio of amounts bound Z=Y/X (altered form / CE115HA000): 0.93

B17: CE115HA000 R16Q one-arm antibody (antibody, human IgG1, kappa, L234A L235A, N297A, name in Kabat numbering)
heavy: B1 heavy with R16Q, Y50Q
chain: B1 chain
light: B1 light
ratio of amounts bound Z=Y/X (altered form / CE115HA000): 0

B18: CE115HA000 S52cG one-arm antibody (antibody, human IgG1, kappa, L234A L235A, N297A, name in Kabat numbering)
heavy: B1 heavy with Y50Q, S55G
chain: B1 chain
light: B1 light
ratio of amounts bound Z=Y/X (altered form / CE115HA000): 0.97

B19: CE115HA000 S30G one-arm antibody (antibody, human IgG1, kappa, L234A L235A, N297A, name in Kabat numbering)
heavy: B1 heavy with S30G, Y50Q
chain: B1 chain
light: B1 light
ratio of amounts bound Z=Y/X (altered form / CE115HA000): 1.01

B24: CE115HA000 R19T one-arm antibody (antibody, human IgG1, kappa, L234A L235A, N297A, name in Kabat numbering)
heavy: B1 heavy with R19T, Y50Q
chain: B1 chain
light: B1 light
ratio of amounts bound Z=Y/X (altered form / CE115HA000): 0.8

B25: CE115HA000 Q105E one-arm antibody (antibody, human IgG1, kappa, L234A L235A, N297A, name in Kabat numbering)
heavy: B1 heavy with Y50Q, Q114E
chain: B1 chain
light: B1 light
ratio of amounts bound Z=Y/X (altered form / CE115HA000): 0.94

B27: CE115HA000 S52cY one-arm antibody (antibody, human IgG1, kappa, L234A L235A, N297A, name in Kabat numbering)
heavy: B1 heavy with Y50Q, S55Y
chain: B1 chain
light: B1 light
ratio of amounts bound Z=Y/X (altered form / CE115HA000): 1.11

B28: CE115HA000 S62P one-arm antibody (antibody, human IgG1, kappa, L234A L235A, N297A, name in Kabat numbering)
heavy: B1 heavy with Y50Q, S65P
chain: B1 chain
light: B1 light
ratio of amounts bound Z=Y/X (altered form / CE115HA000): 1

B29: CE115HA000 S52cQ one-arm antibody (antibody, human IgG1, kappa, L234A L235A, N297A, name in Kabat numbering)
heavy: B1 heavy with Y50Q, S55Q
chain: B1 chain
light: B1 light
ratio of amounts bound Z=Y/X (altered form / CE115HA000): 1.04

B30: CE115HA000 S62E one-arm antibody (antibody, human IgG1, kappa, L234A L235A, N297A, name in Kabat numbering)
heavy: B1 heavy with Y50Q, S65E
chain: B1 chain
light: B1 light
ratio of amounts bound Z=Y/X (altered form / CE115HA000): 0.92

B31: CE115HA000 S52cL one-arm antibody (antibody, human IgG1, kappa, L234A L235A, N297A, name in Kabat numbering)
heavy: B1 heavy with Y50Q, S55L
chain: B1 chain
light: B1 light
ratio of amounts bound Z=Y/X (altered form / CE115HA000): 0.98

B32: CE115HA000 S52cF one-arm antibody (antibody, human IgG1, kappa, L234A L235A, N297A, name in Kabat numbering)
heavy: B1 heavy with Y50Q, S55F
chain: B1 chain
light: B1 light
ratio of amounts bound Z=Y/X (altered form / CE115HA000): 1.13

The next lines start with the values.

ratio of amounts bound Z=Y/X (altered form / CE115HA000): 1
B2: CE115HA000 V11L one-arm antibody (antibody, human IgG1, kappa, L234A L235A, N297A, name in Kabat numbering)
heavy: B1 heavy with V11L, Y50Q
chain: B1 chain
light: B1 light

ratio of amounts bound Z=Y/X (altered form / CE115HA000): 0.24
B4: CE115HA000 V95D one-arm antibody (antibody, human IgG1, kappa, L234A L235A, N297A, name in Kabat numbering)
heavy: B1 heavy with Y50Q, V101D
chain: B1 chain
light: B1 light

ratio of amounts bound Z=Y/X (altered form / CE115HA000): 0.56
B5: CE115HA000 T28D one-arm antibody (antibody, human IgG1, kappa, L234A L235A, N297A, name in Kabat numbering)
heavy: B1 heavy with T28D, Y50Q
chain: B1 chain
light: B1 light

ratio of amounts bound Z=Y/X (altered form / CE115HA000): 0.91
B7: CE115HA000 S74P one-arm antibody (antibody, human IgG1, kappa, L234A L235A, N297A, name in Kabat numbering)
heavy: B1 heavy with Y50Q, S77P
chain: B1 chain
light: B1 light

ratio of amounts bound Z=Y/X (altered form / CE115HA000): 0.91
B12: CE115HA000 T28S one-arm antibody (antibody, human IgG1, kappa, L234A L235A, N297A, name in Kabat numbering)
heavy: B1 heavy with T28S, Y50Q
chain: B1 chain
light: B1 light

ratio of amounts bound Z=Y/X (altered form / CE115HA000): 1.32
B13: CE115HA000 T57K one-arm antibody (antibody, human IgG1, kappa, L234A L235A, N297A, name in Kabat numbering)
heavy: B1 heavy with Y50Q, T60K
chain: B1 chain
light: B1 light

ratio of amounts bound Z=Y/X (altered form / CE115HA000): 0.98
B16: CE115HA000 T57A one-arm antibody (antibody, human IgG1, kappa, L234A L235A, N297A, name in Kabat numbering)
heavy: B1 heavy with Y50Q, T60A
chain: B1 chain
light: B1 light

ratio of amounts bound Z=Y/X (altered form / CE115HA000): 1.05
B20: CE115HA000 S74A one-arm antibody (antibody, human IgG1, kappa, L234A L235A, N297A, name in Kabat numbering)
heavy: B1 heavy with Y50Q, S77A
chain: B1 chain
light: B1 light

ratio of amounts bound Z=Y/X (altered form / CE115HA000): 0.9
B21: CE115HA000 S77T one-arm antibody (antibody, human IgG1, kappa, L234A L235A, N297A, name in Kabat numbering)
heavy: B1 heavy with Y50Q, S80T
chain: B1 chain
light: B1 light

ratio of amounts bound Z=Y/X (altered form / CE115HA000): 0.11
B22: CE115HA000 V95A one-arm antibody (antibody, human IgG1, kappa, L234A L235A, N297A, name in Kabat numbering)
heavy: B1 heavy with Y50Q, V101A
chain: B1 chain
light: B1 light

ratio of amounts bound Z=Y/X (altered form / CE115HA000): 0.97
B23: CE115HA000 T57N one-arm antibody (antibody, human IgG1, kappa, L234A L235A, N297A, name in Kabat numbering)
heavy: B1 heavy with Y50Q, T60N
chain: B1 chain
light: B1 light

ratio of amounts bound Z=Y/X (altered form / CE115HA000): 0.61
B26: CE115HA000 T57I one-arm antibody (antibody, human IgG1, kappa, L234A L235A, N297A, name in Kabat numbering)
heavy: B1 heavy with Y50Q, T60I
chain: B1 chain
light: B1 light
